# Experimental data: paper PMC12617615, “Decoding substrate recognition in malapain-2 through structural and mutational insights” (Computational and Structural Biotechnology Journal, 2025)
# Experiments:
# [1] = system: Cc1cc(=O)oc2cc(NC(=O)[C@H](CCCNC(=N)N)NC(=O)[C@H](CCCNC(=N)N)NC(=O)OCc3ccccc3)ccc12; assay: purified protein; conditions: 100 mM sodium acetate pH 5.0, 10 mM DTT, 37 °C, 20 nM enzyme, substrate range 0.1–100 μM
# Text: (§1) fluorogenic AMC release, Michaelis-Menten on malapain-2 (MP-2)
# [2] = system: Cc1cc(=O)oc2cc(NC(=O)[C@H](CCCNC(=N)N)NC(=O)[C@H](CC(C)C)NC(=O)OCc3ccccc3)ccc12; assay: purified protein; conditions: 100 mM sodium acetate pH 5.0, 10 mM DTT, 37 °C, 20 nM enzyme, substrate range 0.1–100 μM
# Text: as §1
substance,measurement,setting,value
malapain-2 (MP-2) (Plasmodium malariae),Km,[1],846.4 ± 0.6 µM
same,Km,[2],111.2 ± 1.2 µM
